Results published in PMC4499152.
Where two headings read alike, the source gives them in different places.

Tests used:
RPA complex [1] = molecular target: T1, RPA complex (UniProt P27694;P15927;P35244 1-616;1-270;1-121); experiment: pull-down
RPA complex [2] = molecular target: T1, RPA complex; experiment: pull-down; remark: listed apart in the source

T1 sequence (P27694 whole entry, chain 1 of 3): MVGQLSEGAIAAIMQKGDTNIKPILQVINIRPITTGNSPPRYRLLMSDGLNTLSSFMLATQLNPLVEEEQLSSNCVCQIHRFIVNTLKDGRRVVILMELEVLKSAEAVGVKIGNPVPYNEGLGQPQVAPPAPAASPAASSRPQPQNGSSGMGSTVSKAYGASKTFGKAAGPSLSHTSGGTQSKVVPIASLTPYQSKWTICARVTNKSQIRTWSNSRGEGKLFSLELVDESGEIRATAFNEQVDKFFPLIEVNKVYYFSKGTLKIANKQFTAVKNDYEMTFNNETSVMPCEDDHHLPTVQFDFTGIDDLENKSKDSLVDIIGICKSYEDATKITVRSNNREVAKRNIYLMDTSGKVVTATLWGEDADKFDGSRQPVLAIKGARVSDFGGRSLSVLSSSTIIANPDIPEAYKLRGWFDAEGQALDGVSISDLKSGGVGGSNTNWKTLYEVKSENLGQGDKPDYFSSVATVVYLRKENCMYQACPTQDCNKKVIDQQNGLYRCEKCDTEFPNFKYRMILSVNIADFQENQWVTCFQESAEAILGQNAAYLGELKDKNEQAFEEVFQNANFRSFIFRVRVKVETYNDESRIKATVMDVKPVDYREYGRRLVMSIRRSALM
T1 sequence (P15927 whole entry, chain 2 of 3): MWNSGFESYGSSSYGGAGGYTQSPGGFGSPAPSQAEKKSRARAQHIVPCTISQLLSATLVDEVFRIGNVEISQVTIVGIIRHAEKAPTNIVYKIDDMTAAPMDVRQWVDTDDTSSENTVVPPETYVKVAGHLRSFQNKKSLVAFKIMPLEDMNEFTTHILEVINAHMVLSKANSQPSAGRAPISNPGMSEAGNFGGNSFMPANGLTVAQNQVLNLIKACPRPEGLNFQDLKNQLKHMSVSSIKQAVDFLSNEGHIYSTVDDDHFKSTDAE
T1 sequence (P35244 whole entry, chain 3 of 3): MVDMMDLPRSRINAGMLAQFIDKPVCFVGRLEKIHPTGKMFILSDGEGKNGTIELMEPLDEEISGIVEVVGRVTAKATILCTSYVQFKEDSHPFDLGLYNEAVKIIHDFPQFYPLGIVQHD

TTAGGGTTAGGGTTAGGGTTAGGGTTAGGGTTAGGGTTAGGGTTAGGG (ssDNA) [ssTEL]: binds (RPA complex [1]).

TTTGCGTTTGCGTTTGCGTTTGCGTTTGCGTTTGCGTTTGCGTTTGCG (ssDNA) [ssMUT]: binds (RPA complex [2]).
